The results in this text go back to patent US20120238493A1 (INDIANA UNIVERSITY RESEARCH AND TECHNOLOGY, published 2012).

Holding throughout (test): cell-based or functional assay
The target of assay [1] is T1, glucagon receptor (UniProt P47871 26-477, limits assumed).
Assay [2] has as its target T2, GLP-1 receptor (UniProt P43220 24-463, limits assumed).
Assay [3] concerns the target T3, GIP receptor (UniProt P48546 22-466, limits assumed).
T3 sequence (looked up): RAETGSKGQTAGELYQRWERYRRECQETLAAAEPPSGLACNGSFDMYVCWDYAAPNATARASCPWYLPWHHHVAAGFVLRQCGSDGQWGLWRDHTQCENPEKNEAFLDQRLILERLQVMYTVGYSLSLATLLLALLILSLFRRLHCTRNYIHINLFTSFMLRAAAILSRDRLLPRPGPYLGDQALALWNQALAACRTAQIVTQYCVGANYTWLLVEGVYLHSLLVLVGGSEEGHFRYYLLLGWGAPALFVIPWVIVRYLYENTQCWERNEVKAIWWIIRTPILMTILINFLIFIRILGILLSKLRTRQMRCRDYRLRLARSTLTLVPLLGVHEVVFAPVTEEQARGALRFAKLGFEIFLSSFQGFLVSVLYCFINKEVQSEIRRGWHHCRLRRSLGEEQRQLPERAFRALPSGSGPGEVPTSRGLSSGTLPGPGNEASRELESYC

In assay [4] the target is T1, glucagon receptor. The source holds these as a separate data set.
For assay [5], the target named is T2, GLP-1 receptor. The source holds these as a separate data set.
Target sequence in this assay (P43220 24-463 limits assumed): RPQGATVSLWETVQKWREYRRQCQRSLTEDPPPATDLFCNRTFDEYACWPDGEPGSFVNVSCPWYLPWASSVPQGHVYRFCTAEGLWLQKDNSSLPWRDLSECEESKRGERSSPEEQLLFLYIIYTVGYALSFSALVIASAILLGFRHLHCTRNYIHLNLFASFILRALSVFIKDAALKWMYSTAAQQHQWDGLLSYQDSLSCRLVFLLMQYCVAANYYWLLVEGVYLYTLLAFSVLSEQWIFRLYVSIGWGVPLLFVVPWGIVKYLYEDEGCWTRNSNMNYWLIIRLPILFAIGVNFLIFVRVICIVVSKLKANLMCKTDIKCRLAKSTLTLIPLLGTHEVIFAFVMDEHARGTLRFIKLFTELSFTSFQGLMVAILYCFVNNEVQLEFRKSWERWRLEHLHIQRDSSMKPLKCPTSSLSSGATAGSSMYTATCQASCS
Assay [6] concerns the target T3, GIP receptor. This is another data set of the same source.
Assay [7] concerns the target T1, glucagon receptor. This is another data set of the same source.
The target in assay [8] is T2, GLP-1 receptor. This is another data set of the same source.
Assay [9] concerns the target T3, GIP receptor. This is another data set of the same source.
In assay [10] the target is T1, glucagon receptor. This is another data set of the same source.
The target in assay [11] is T2, GLP-1 receptor. This is another data set of the same source.
The target of assay [12] is T3, GIP receptor. The source holds these as a separate data set.
Assay [13] deals with T1, glucagon receptor. The source holds these as a separate data set.
The target in assay [14] is T2, GLP-1 receptor. The source holds these as a separate data set.
Assay [15] concerns the target T3, GIP receptor. The source holds these as a separate data set.

Read-outs that look alike come from different tables or passages of the source. *1 amine or outer side, *2 acyl side, *3 side chain or, on linkers, in order; H or OH if unused. Where no end group is shown, it is not given here. Side-chain parts run from the residue outwards. [ ]: non-standard residue; d: D form. The star is where a group is joined. γGlu = O=C(O)[C@H](CCC(=O)[*:2])N[*:1]; Palmitoyl = CCCCCCCCCCCCCCCC(=O)*; Suc = O=C(CCC(=O)[*:2])[*:1]; Aib = CC(C)(N)C(=O)O; βAla = NCCC(=O)O

T1 sequence (P47871 26-477 limits assumed): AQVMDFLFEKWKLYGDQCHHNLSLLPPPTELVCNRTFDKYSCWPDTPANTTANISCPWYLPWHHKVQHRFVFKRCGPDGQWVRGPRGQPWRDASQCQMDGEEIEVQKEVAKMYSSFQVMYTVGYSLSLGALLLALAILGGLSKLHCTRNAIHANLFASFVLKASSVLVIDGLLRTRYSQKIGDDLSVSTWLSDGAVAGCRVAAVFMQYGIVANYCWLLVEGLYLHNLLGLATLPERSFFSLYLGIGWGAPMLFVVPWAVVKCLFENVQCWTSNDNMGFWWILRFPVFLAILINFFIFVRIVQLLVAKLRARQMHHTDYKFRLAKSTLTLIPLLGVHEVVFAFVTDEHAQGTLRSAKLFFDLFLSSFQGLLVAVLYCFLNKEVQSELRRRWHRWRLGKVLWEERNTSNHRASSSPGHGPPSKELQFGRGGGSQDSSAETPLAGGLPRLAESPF

B1: peptide of SEQ ID NO: 204 (peptide)
peptide: H[Aib]QGTFTSDYSKYLDERAAQDFVQWLLDAGPSSGAPPPSK([γGlu-γGlu-Palmitoyl])G-NH2
With B1, the figures for the “EC50 (cAMP reporter)” value with glucagon receptor [1], in the assay with GLP-1 receptor [2] and with GIP receptor [3] were 3 pM, 1 pM and 69 pM, respectively.

B2: peptide of SEQ ID NO: 140 (peptide)
peptide: Y[Aib]EGTFTSDYSIYLDKQAA[Aib]EFVNWLLAGGPSSGAPPPSK([Suc-Palmitoyl])G-NH2
As to B2, the entries for the “EC50 (cAMP reporter)” value with glucagon receptor [4], with GLP-1 receptor [5] and in the assay with GIP receptor [6] were 77 pM, 1 pM and 1 pM, respectively.

B3: peptide of SEQ ID NO: 139 (peptide)
peptide: Y[Aib]EGTFTSDYSIYLDKQAA[Aib]EFVNWLLAGGPSSGAPPPSK(Palmitoyl)G-NH2
As for B3, the figures for the “EC50 (cAMP reporter)” value with glucagon receptor [4], with GLP-1 receptor [5] and with GIP receptor [6] were 203 pM, 5 pM and 1 pM, respectively.

B4: peptide of SEQ ID NO: 203 (peptide)
peptide: H[Aib]QGTFTSDYSKYLDERAAQDFVQWLLAGGPSSGAPPPSK([γGlu-γGlu-Palmitoyl])G-NH2
With B4, the “EC50 (cAMP reporter)” value with glucagon receptor [1] was 3 pM; in the assay with GLP-1 receptor [2], 1 pM; with GIP receptor [3] it was 7 pM.

B5: peptide of SEQ ID NO: 143 (peptide)
peptide: YXEGTFTSDXSIYLDKQAAXEFVNWLLAGGPSSGAPPPS
modifications: aib at 2 and 20; 4-aminoPhe at 10 acylated F(4-aminoγEγEC16); NH2
As for B5, the “EC50 (cAMP reporter)” value was determined as 165 pM with glucagon receptor [4], 2 pM in the assay with GLP-1 receptor [5] and 3 pM with GIP receptor [6].

B6: peptide of SEQ ID NO: 144 (peptide)
peptide: YXEGTFTSDXSIYLDKQAAXEFVNWLLAGGPSSGAPPPS
modifications: aib at 2 and 20; 4-aminoPhe at 10, F(4amino-succinoylC16); NH2
In the case of B6, the entries for the “EC50 (cAMP reporter)” value with glucagon receptor [4], in the assay with GLP-1 receptor [5] and with GIP receptor [6] were greater than 500 pM, 4 pM and 13 pM, respectively.

B7: dual acylated peptide of SEQ ID NO: 161 (peptide)
peptide: H[Aib]QGTFTSDYSKYLDERAAQDFVQWLLDGGPSSGAPPPSK-NH2
modifications: also: Lys40 branched dual acylation K*K(γE-C16)2
B7: the “EC50 (cAMP, nmole)” value with glucagon receptor [7] was determined as 0.011 nmol; in the assay with GLP-1 receptor [8] it was 0.007 nmol; with GIP receptor [9], 0.01 nmol.

B8: dual acylated peptide of SEQ ID NO: 160 (peptide)
peptide: HXQGTFTSDKSKYLDERAAQDFVQWLLDGGPSSGAPPPS
modifications: aib at 2; Lys10 carrying two acylations in a branched formation, K*K(rEC16)2; amide
Consider B8, for which the “EC50 (cAMP, nmole)” value was found to be 0.024 nmol in the assay with glucagon receptor [7], 0.007 nmol in the assay with GLP-1 receptor [8] and 0.015 nmol with GIP receptor [9].

B9: dual acylated peptide of SEQ ID NO: 162 (peptide)
peptide: HXQGTFTSDKSKYLDERAAQDFVQWLLDGGPSSGAPPPS
modifications: aib at 2; Lys10 carrying two acylations in a linear formation, K*(C12-rEC16); amide
Regarding B9, the “EC50 (cAMP, nmole)” value with glucagon receptor [7] stood at 0.008 nmol; in the assay with GLP-1 receptor [8], 0.003 nmol; with GIP receptor [9], 0.033 nmol.

B10: peptide of SEQ ID NO: 207 (peptide)
peptide: H[Aib]QGTFTSDK([γGlu-γGlu-Palmitoyl])SKYLDERAAQDFVQWLLDGGPSSGAPPPSG-NH2
modifications: N-terminus assumed
SMILES: CCCCCCCCCCCCCCCC(=O)N[C@@H](CCC(=O)N[C@@H](CCC(=O)NCCCC[C@H](NC(=O)[C@H](CC(=O)O)NC(=O)[C@H](CO)NC(=O)[C@@H](NC(=O)[C@H](Cc1ccccc1)NC(=O)[C@@H](NC(=O)CNC(=O)[C@H](CCC(N)=O)NC(=O)C(C)(C)NC(=O)[C@@H](N)Cc1c[nH]cn1)[C@@H](C)O)[C@@H](C)O)C(=O)N[C@@H](CO)C(=O)N[C@@H](CCCCN)C(=O)N[C@@H](Cc1ccc(O)cc1)C(=O)N[C@@H](CC(C)C)C(=O)N[C@@H](CC(=O)O)C(=O)N[C@@H](CCC(=O)O)C(=O)N[C@@H](CCCNC(=N)N)C(=O)N[C@@H](C)C(=O)N[C@@H](C)C(=O)N[C@@H](CCC(N)=O)C(=O)N[C@@H](CC(=O)O)C(=O)N[C@@H](Cc1ccccc1)C(=O)N[C@H](C(=O)N[C@@H](CCC(N)=O)C(=O)N[C@@H](Cc1c[nH]c2ccccc12)C(=O)N[C@@H](CC(C)C)C(=O)N[C@@H](CC(C)C)C(=O)N[C@@H](CC(=O)O)C(=O)NCC(=O)NCC(=O)N1CCC[C@H]1C(=O)N[C@@H](CO)C(=O)N[C@@H](CO)C(=O)NCC(=O)N[C@@H](C)C(=O)N1CCC[C@H]1C(=O)N1CCC[C@H]1C(=O)N1CCC[C@H]1C(=O)N[C@@H](CO)C(=O)NCC(N)=O)C(C)C)C(=O)O)C(=O)O
As for B10, the “EC50 (cAMP reporter)” value stood at 5 pM with glucagon receptor [1], 2 pM with GLP-1 receptor [2] and 15 pM in the assay with GIP receptor [3].

B11: peptide of SEQ ID NO: 205 (peptide)
peptide: H[Aib]QGTFTSDK([γGlu-Palmitoyl])SKYLDERAAQDFVQWLLDGGPSSGAPPPSG-NH2
modifications: N-terminus assumed
SMILES: CCCCCCCCCCCCCCCC(=O)N[C@@H](CCC(=O)NCCCC[C@H](NC(=O)[C@H](CC(=O)O)NC(=O)[C@H](CO)NC(=O)[C@@H](NC(=O)[C@H](Cc1ccccc1)NC(=O)[C@@H](NC(=O)CNC(=O)[C@H](CCC(N)=O)NC(=O)C(C)(C)NC(=O)[C@@H](N)Cc1c[nH]cn1)[C@@H](C)O)[C@@H](C)O)C(=O)N[C@@H](CO)C(=O)N[C@@H](CCCCN)C(=O)N[C@@H](Cc1ccc(O)cc1)C(=O)N[C@@H](CC(C)C)C(=O)N[C@@H](CC(=O)O)C(=O)N[C@@H](CCC(=O)O)C(=O)N[C@@H](CCCNC(=N)N)C(=O)N[C@@H](C)C(=O)N[C@@H](C)C(=O)N[C@@H](CCC(N)=O)C(=O)N[C@@H](CC(=O)O)C(=O)N[C@@H](Cc1ccccc1)C(=O)N[C@H](C(=O)N[C@@H](CCC(N)=O)C(=O)N[C@@H](Cc1c[nH]c2ccccc12)C(=O)N[C@@H](CC(C)C)C(=O)N[C@@H](CC(C)C)C(=O)N[C@@H](CC(=O)O)C(=O)NCC(=O)NCC(=O)N1CCC[C@H]1C(=O)N[C@@H](CO)C(=O)N[C@@H](CO)C(=O)NCC(=O)N[C@@H](C)C(=O)N1CCC[C@H]1C(=O)N1CCC[C@H]1C(=O)N1CCC[C@H]1C(=O)N[C@@H](CO)C(=O)NCC(N)=O)C(C)C)C(=O)O
On to B11, for which the “EC50 (cAMP reporter)” value in the assay with glucagon receptor [1] came to 5 pM; in the assay with GLP-1 receptor [2], 2 pM; with GIP receptor [3], 4 pM.

B12: peptide of SEQ ID NO: 142 (peptide)
peptide: Y[Aib]EGTFTSDYSIYLDKQAA[Aib]EFVNWLLAGGPSSGAPPPSK([Suc-C18])G-NH2
For B12, the “EC50 (cAMP reporter)” value with glucagon receptor [4] amounted to 121 pM; with GLP-1 receptor [5], 4 pM; with GIP receptor [6], 1 pM.

B13: Analog No. 37: Aib2, K10acyl, E16, Aib20, E21, L27, D28 (SEQ ID NO: 31) (peptide)
peptide: H[Aib]QGTFTSDK([γGlu-Palmitoyl])SKYLDERRA[Aib]EFVQWLLDT-NH2
modifications: N-terminus assumed
SMILES: CCCCCCCCCCCCCCCC(=O)N[C@@H](CCC(=O)NCCCC[C@H](NC(=O)[C@H](CC(=O)O)NC(=O)[C@H](CO)NC(=O)[C@@H](NC(=O)[C@H](Cc1ccccc1)NC(=O)[C@@H](NC(=O)CNC(=O)[C@H](CCC(N)=O)NC(=O)C(C)(C)NC(=O)[C@@H](N)Cc1c[nH]cn1)[C@@H](C)O)[C@@H](C)O)C(=O)N[C@@H](CO)C(=O)N[C@@H](CCCCN)C(=O)N[C@@H](Cc1ccc(O)cc1)C(=O)N[C@@H](CC(C)C)C(=O)N[C@@H](CC(=O)O)C(=O)N[C@@H](CCC(=O)O)C(=O)N[C@@H](CCCNC(=N)N)C(=O)N[C@@H](CCCNC(=N)N)C(=O)N[C@@H](C)C(=O)NC(C)(C)C(=O)N[C@@H](CCC(=O)O)C(=O)N[C@@H](Cc1ccccc1)C(=O)N[C@H](C(=O)N[C@@H](CCC(N)=O)C(=O)N[C@@H](Cc1c[nH]c2ccccc12)C(=O)N[C@@H](CC(C)C)C(=O)N[C@@H](CC(C)C)C(=O)N[C@@H](CC(=O)O)C(=O)N[C@H](C(N)=O)[C@@H](C)O)C(C)C)C(=O)O
B13: the “EC50 (cAMP reporter)” value with glucagon receptor [10] was 8 pM; with GLP-1 receptor [11], 4.4 pM; with GIP receptor [12], 8 pM; with glucagon receptor [13] it was 8 pM; with GLP-1 receptor [14] it was 4.4 pM; in the assay with GIP receptor [15], 8 pM.

B14: peptide of SEQ ID NO: 141 (peptide)
peptide: Y[Aib]EGTFTSDYSIYLDKQAA[Aib]EFVNWLLAGGPSSGAPPPSK([βAla-Suc-Palmitoyl])G-NH2
Turning to B14, the “EC50 (cAMP reporter)” value was found to be 58 pM with glucagon receptor [4], 1 pM in the assay with GLP-1 receptor [5] and 2 pM with GIP receptor [6].
